Patent US20190002889

Assays:
[1] = tested on: T1, RspWYL1 (WP_046441785.1, Ruminococcus sp. N15.MGS-57 WYL1 accessory protein)
T1 sequence: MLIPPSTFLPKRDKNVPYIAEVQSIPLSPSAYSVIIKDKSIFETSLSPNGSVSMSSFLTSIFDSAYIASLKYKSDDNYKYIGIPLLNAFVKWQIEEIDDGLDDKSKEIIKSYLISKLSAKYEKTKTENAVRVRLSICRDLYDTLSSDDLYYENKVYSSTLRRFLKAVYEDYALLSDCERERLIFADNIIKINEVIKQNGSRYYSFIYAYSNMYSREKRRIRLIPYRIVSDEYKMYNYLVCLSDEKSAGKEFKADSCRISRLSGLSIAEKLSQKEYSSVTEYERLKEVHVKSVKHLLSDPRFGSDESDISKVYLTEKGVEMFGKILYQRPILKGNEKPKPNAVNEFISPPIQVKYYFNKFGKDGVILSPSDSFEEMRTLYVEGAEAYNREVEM

[2] = target: T2, RspWYL1 (WP_046441785.1, Ruminococcus sp. N15.MGS-57 WYL1 accessory protein)
T2 chain: T1 sequence

## Bergeyella zoohelcum Cas13b (BzCas13b)
[1]
  in vitro ssRNA cleavage activity (denaturing gel): RspWYL1 enhanced the activity of BzCas13b

B1: RspCas13d (WP_046441786.1, Ruminococcus sp. N15.MGS-57 Type VI-D CRISPR-Cas effector) (protein)
chain: MAKKNKMKPRELREAQKKARQLKAAEINNNAAPAIAAMPAAEVIAPVAEKKKSSVKAAGMKSILVSKNKMYITSFGKGNSAVLEYEVDNNDYNQTQLSSKGSSNIELRGVNEVNITFSSKHGFESGVEINTSNPTHRSGESSPVRGDMLGLKSELEKRFFGKTFDDNIHIQLIYNILDIEKILAVYVTNIVYALNNMLSIKDSESYDDFMGYLSARNTYEVFTHPDKSNLSDKAKGNIKKSFSTFNDLLKTKRLGYFGLEEPKTKDTRVSQAYKKRVYHMLAIVGQIRQSVFHDKSSKLDEDLYSFIDIIDSEYRETLDYLVDERFDSINKGFIQGNKVNISLLIDMMKGYEADDIIRLYYDFIVLKSQKNLGFSIKKLREKMLDEYGFRFKDKQYDSVRSKMYKLMDFLLFCNYYRNDVVAGEALVRKLRFSMTDDEKEGIYADEASKLWGKFRNDFENIADHMNGDVIKELGKADMDFDEKILDSEKKNASDLLYFSKMIYMLTYFLDGKEINDLLTTLISKFDNIKEFLKIMKSSAVDVECELTAGYKLFNDSQRITNELFIVKNIASMRKPASSAKLTMFRDALTILGIDDNITDDRISEILKLKEKGKGIHGLRNFITNNVIESSRFVYLIKYANAQKIRKVAKNEKVVMFVLGGIPDTQIERYYKSCVEFPDMNSSLEVKRSELARMIKNISFDDFKNVKQQAKGRENVAKERAKAVIGLYLTVMYLLVKNLVNVNARYVIAIHCLERDFGLYKEIIPELASKNLKNDYRILSQTLCELCDKSPNLFLKKNERLRKCVEVDINNADSSMTRKYRNCIAHLTVVRELKEYIGDIRTVDSYFSIYHYVMQRCITKRENDTKQEEKIKYEDDLLKNHGYTKDFVKALNSPFGYNIPRFKNLSIEQLFDRNEYLTEK
[2]
  targeted and collateral ssRNA cleavage activity (in vitro ssRNA cleavage assay, denaturing gel): RspWYL1 increases both the targeted and collateral ssRNA cleavage activity of RspCas13d in a dose-dependent manner, with a molar excess of RspWYL1 yielding the greatest increase in Cas13d activity

B2: EsCas13d (WP_005358205.1, Eubacterium siraeum DSM 15702 Type VI-D CRISPR-Cas effector) (protein)
chain: MGKKIHARDLREQRKTDRTEKFADQNKKREAERAVPKKDAAVSVKSVSSVSSKKDNVTKSMAKAAGVKSVFAVGNTVYMTSFGRGNDAVLEQKIVDTSHEPLNIDDPAYQLNVVTMNGYSVTGHRGETVSAVTDNPLRRFNGRKKDEPEQSVPTDMLCLKPTLEKKFFGKEFDDNIHIQLIYNILDIEKILAVYSTNAIYALNNMSADENIENSDFFMKRTTDETFDDFEKKKESTNSREKADFDAFEKFIGNYRLAYFADAFYVNKKNPKGKAKNVLREDKELYSVLTLIGKLRHWCVHSEEGRAEFWLYKLDELKDDFKNVLDVVYNRPVEEINNRFIENNKVNIQILGSVYKNTDIAELVRSYYEFLITKKYKNMGFSIKKLRESMLEGKGYADKEYDSVRNKLYQMTDFILYTGYINEDSDRADDLVNTLRSSLKEDDKTTVYCKEADYLWKKYRESIREVADALDGDNIKKLSKSNIEIQEDKLRKCFISYADSVSEFTKLIYLLTRFLSGKEINDLVTTLINKFDNIRSFLEIMDELGLDRTFTAEYSFFEGSTKYLAELVELNSFVKSCSFDINAKRTMYRDALDILGIESDKTEEDIEKMIDNILQIDANGDKKLKKNNGLRNFIASNVIDSNRFKYLVRYGNPKKIRETAKCKPAVRFVLNEIPDAQIERYYEACCPKNTALCSANKRREKLADMIAEIKFENFSDAGNYQKANVTSRTSEAEIKRKNQAIIRLYLTVMYIMLKNLVNVNARYVIAFHCVERDTKLYAESGLEVGNIEKNKTNLTMAVMGVKLENGIIKTEFDKSFAENAANRYLRNARWYKLILDNLKKSERAVVNEFRNTVCHLNAIRNININIKEIKEVENYFALYHYLIQKHLENRFADKKVERDTGDFISKLEEHKTYCKDFVKAYCTPFGYNLVRYKNLTIDGLFDKNYPGKDDSDEQK
[2]
  targeted and collateral ssRNA nuclease activities (in vitro ssRNA cleavage assay, denaturing gel): RspWYL1 enhanced the targeted and collateral ssRNA nuclease activities of EsCas13d to a similar extent as observed for RspCas13d
